Kd data for one molecule are collected here from paper PMC4652773, “Functional significance of protein assemblies predicted by the crystal structure of the restriction endonuclease BsaWI”.

Common to all, as to assay: EMSA; 5 mM Ca2+; EMSA: 40 mM Tris-acetate pH 8.3, 0.1 mg/ml BSA, 10% glycerol, 5 mM CaCl2 or 0.1 mM EDTA, 1 nM DNA, room temperature, 15 min
On the technique in general: A gel shift assay detects complexes by their altered migration in electrophoresis.

The target of one data set is T1, BsaWI E128A&R130A (UniProt Q6UQ65 1-272, E128A;R130A).
T1 sequence: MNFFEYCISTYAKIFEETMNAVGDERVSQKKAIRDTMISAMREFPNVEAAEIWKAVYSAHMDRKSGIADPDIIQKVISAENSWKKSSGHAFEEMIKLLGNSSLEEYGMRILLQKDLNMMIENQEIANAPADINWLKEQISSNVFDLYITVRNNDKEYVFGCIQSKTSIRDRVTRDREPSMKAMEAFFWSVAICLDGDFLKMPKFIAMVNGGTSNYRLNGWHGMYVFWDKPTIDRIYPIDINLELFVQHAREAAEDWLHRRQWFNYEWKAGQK
The following applies: protein: recombinant; chain copies: 2; label: 33P; blunt.

The target in another data set is T2, BsaWI W262A (UniProt Q6UQ65 1-272, W262A).
T2 sequence: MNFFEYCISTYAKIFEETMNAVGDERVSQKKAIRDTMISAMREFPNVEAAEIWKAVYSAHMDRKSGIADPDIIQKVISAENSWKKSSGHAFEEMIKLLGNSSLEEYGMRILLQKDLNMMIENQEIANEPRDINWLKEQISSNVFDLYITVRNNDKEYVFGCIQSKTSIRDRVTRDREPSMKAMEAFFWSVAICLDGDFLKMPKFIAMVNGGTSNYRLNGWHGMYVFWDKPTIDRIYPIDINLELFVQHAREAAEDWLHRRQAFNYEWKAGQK
The following applies: protein: recombinant; chain copies: 2; label: 33P; blunt.

In the next data set the target is T3, BsaWI R259A&W262A (UniProt Q6UQ65 1-272, R259A;W262A).
T3 sequence: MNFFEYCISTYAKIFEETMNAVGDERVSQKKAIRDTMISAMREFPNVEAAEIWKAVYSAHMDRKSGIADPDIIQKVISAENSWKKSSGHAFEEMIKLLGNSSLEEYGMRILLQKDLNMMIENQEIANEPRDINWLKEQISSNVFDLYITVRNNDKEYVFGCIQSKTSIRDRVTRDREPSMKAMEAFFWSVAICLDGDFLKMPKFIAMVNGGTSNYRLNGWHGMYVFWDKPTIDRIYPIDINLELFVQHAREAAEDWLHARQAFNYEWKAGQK
The following applies: protein: recombinant; chain copies: 2; label: 33P; blunt.

A further data set has as its target T4, BsaWI E128A (UniProt Q6UQ65 1-272, E128A).
T4 sequence: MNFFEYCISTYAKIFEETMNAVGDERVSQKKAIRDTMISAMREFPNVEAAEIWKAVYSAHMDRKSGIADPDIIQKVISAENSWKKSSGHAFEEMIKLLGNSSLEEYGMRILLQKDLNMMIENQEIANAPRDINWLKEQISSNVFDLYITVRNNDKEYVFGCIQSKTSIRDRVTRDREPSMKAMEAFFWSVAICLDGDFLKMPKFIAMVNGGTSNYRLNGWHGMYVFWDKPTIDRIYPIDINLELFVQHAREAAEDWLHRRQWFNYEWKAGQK
Particulars: protein: recombinant; chain copies: 2; label: 33P; blunt.

The next data set deals with T5, BsaWI D145A (UniProt Q6UQ65 1-272, D145A).
T5 sequence: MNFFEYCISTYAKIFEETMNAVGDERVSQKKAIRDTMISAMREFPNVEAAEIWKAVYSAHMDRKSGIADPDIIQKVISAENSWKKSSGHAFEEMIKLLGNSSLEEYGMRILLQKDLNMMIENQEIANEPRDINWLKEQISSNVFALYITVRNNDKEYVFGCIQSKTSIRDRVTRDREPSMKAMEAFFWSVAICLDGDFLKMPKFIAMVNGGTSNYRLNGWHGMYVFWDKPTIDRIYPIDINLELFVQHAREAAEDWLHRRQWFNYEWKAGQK
The following applies: protein: recombinant; chain copies: 4; label: 33P; blunt.

A further data set addresses T6, BsaWI D175A (UniProt Q6UQ65 1-272, D175A).
T6 sequence: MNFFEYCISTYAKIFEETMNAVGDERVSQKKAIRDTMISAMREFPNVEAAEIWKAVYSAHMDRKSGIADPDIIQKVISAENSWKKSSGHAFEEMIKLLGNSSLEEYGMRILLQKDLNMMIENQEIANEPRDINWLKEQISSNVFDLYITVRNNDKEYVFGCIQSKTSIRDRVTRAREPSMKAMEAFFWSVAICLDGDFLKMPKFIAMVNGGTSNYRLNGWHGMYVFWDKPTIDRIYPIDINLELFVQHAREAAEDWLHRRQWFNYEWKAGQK
Particulars: protein: recombinant; chain copies: 4; label: 33P; blunt.

The target of a further data set is T7, BsaWI R130A&R259A (UniProt Q6UQ65 1-272, R130A;R259A).
T7 sequence: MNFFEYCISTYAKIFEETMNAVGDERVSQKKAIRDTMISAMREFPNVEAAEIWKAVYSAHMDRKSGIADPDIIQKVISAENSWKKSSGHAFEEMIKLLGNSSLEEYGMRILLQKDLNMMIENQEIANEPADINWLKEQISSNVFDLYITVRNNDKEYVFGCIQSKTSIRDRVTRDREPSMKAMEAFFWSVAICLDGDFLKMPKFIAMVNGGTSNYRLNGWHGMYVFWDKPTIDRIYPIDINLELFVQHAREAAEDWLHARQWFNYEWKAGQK
The following applies: protein: recombinant; chain copies: 2; label: 33P; blunt.

What is called Kd is the concentration at which binding is half-saturated.

B1: SP (dsDNA)
DNA 1: GCCTTTCGGTTTACCGGTGTCATTCCGCTG
DNA 2: CAGCGGAATGACACCGGTAAACCGAAAGGC
For B1, the Kd turned out to be 2.1 ± 0.5 nM in the data set with BsaWI E128A&R130A; 2.7 ± 0.8 nM in the data set with BsaWI W262A; 2.6 ± 0.6 nM with BsaWI R259A&W262A; 2.19 ± 0.4 nM in the data set with BsaWI E128A; 17 ± 4.7 nM with BsaWI D145A; 6.1 ± 2.3 nM with BsaWI D175A. Moreover, in the data set with BsaWI R130A&R259A, the dissociation constant Kd was found to be 2.7 ± 0.5 nM.
